Test results from doi:10.1101/2020.04.21.053124.

Biological target: MVI Spring bZip (1-914) (UniProt Q9UM54)
Assay: SEC

## MVI Spring bZip (1-914) (from UniProt Q9UM54 1-914)
  stoichiometry N: 2
